Measurements taken from publication PMC5905287, “Synthesis and in vitro biochemical evaluation of oxime bond-linked daunorubicin–GnRH-III conjugates developed for targeted drug delivery” (Beilstein Journal of Organic Chemistry, 2018).
Read-outs that look alike come from different tables or passages of the source. Non-standard residues stand in square brackets, D forms with d. Residues, ends and D or L forms follow the SMILES beside them. *: point of attachment. Daunorubicin(13-NOCH2CO) = COc1cccc2c1C(=O)c1c(O)c3c(c(O)c1C2=O)C[C@@](O)(C(C)=NOCC(=O)*)C[C@@H]3O[C@H]1C[C@H](N)[C@H](O)[C@H](C)O1; pGlu = O=C1CC[C@@H](C(=O)O)N1; Butyryl = CCCC(=O)*

Columns and labels:
[1] = tested on: MCF-7 human breast cancer cell line; assay: In vitro cytostatic effect, alamarBlue assay, MCF-7; format: cell-based
Description: Cell lines often function as the first model system of choice to study biological processes or to test the efficiency of drugs or drug conjugates and their cytotoxic effects. Immortal cell lines offer various benefits, for instance they are easy to handle, cost-effective and provide consistent sample and reproducible results. Nevertheless, cell lines also present the disadvantage that after a period of continuous growth, cell characteristics can change and dedifferentiate in culture. The serial passaging can cause genotypic and phenotypic variations and the state of confluency can also affect gene expression pattern in some cell lines. Due to this, the usage of internal standards during the evaluation of new potential candidates might be necessary to ensure comparability with previous results. The cytostatic effect of the novel GnRH-III bioconjugates was determined on HT-29 human colon cancer and MCF-7 human breast cancer cell lines by alamarBlue® assay. For a better comparison, the well-studied bioconjugates GnRH-III–[^8Lys(Dau=Aoa)] (K1) and GnRH-III–[^4Lys(Bu), ^8Lys(Dau=Aoa)] (K2) were used as positive controls and internal standards. The corresponding IC50 values were calculated by using nonlinear regression (sigmoidal dose response) (Figure 3, Table 2). Unfortunately, the D-Trp containing compounds 3 and 6 started to precipitate in both cell culture media at higher concentrations limiting the concentration down to a maximum of 10 µM. This effect could not be prevented by using DMSO instead of ddH2O for the preparation of the stock solutions. Unfortunately, the lower concentration range with a maximum of 10 µM was not sufficient to achieve the dose-response. […] Nevertheless, the replacement of ^6Asp by D-Asp, D-Glu or D-Trp led to a decreased cytostatic effect on the estimated cancer cell lines.
MCF-7 human breast adenocarcinoma cells were cultured in Dulbecco’s Modified Eagle Medium (DMEM, Lonza, Basel, Switzerland), supplemented with 10% (v/v) fetal bovine serum (FBS, Lonza), L-glutamine (2 mM, Lonza), non-essential amino acids (NEAA, Sigma-Aldrich Kft), sodium pyruvate (1 mM, Lonza) and penicillin-streptomycine (Lonza). […]
Cells were seeded to 96-well plates (Sarstedt, Nümbrecht, Germany, 5 × 10^3 cells/well) one day prior to the treatment in complete cell medium. […] Fluorescence was detected using Synergy H4 multi-mode microplate reader (BioTek, Winooski, VT, USA), excitation and emission wavelengths were set to 570 and 620 nm, respectively. Cytostasis was measured using 4 parallels, each experiment was repeated twice. Cytostatic effect (and IC50 values) were calculated by using nonlinear regression (sigmoidal dose response) with Origin Pro8 (OriginLab Corp., Northampton, MA, USA.).

[2] = Degradation in rat liver lysosomal homogenate (LC-MS); format: in vitro ADME; details: for incubation time after which the smallest Dau-containing metabolite H-Lys(Dau=Aoa)-OH was detected: pH 5
Procedure: In order to gain insight into the cellular release of the drug, the degradation of the Dau–GnRH-III derivatives 1–6, K1 and K2 was determined in the presence of rat liver lysosomal homogenate at 37 °C. […] However, the degradation level and the cleavage sites within the GnRH-III sequence differ considerably depending on the incorporated amino acids, whereby the hydrolyses of the C-terminus (H-Gly-NH2 and H-Pro-Gly-NH2) occurred first in all eight GnRH-III derivatives. Due to the high chemical and enzymatic stability of the oxime bond, no free Dau was detected by LC–MS. In accordance with our previous results, the digestion of the two peptides containing L-Asp in position 6 (K1, K2) provided the smallest Dau-containing metabolite (H-Lys(Dau=Aoa)-OH, m/z 729.36 [M + H]^+). This metabolite could already be detected after 1 hour of incubation in case of K2 and after 2 hours in case of K1. […] It might be assumed that D-Trp of GnRH-III–[^4Lys(Bu), ^6D-Tpr, ^8Lys(Dau=Aoa)] (6) is also accepted at the cleavage site, but due to the prior hydrolysis of the ^7Trp-^8Lys(Dau=Aoa)-bond an evidential fragment has not been detected. A reason for these diversities might be the subsite specificities of the lysosomal proteases. For instance, lysosomal cysteine proteases also known as cathepsins show a broad substrate specificity. […] For instance, the analyzed fragments of the ^6L-Asp derivatives gave clear hints for the presence of endopeptidases, while the digestion of the ^6D-Aaa compounds 1–3 gave only fragments which evidence the activity of exomono- and/or dipeptidases. Moreover, the obtained results for the bioconjugates that contain ^4Lys(Bu) (K2, 4–6) instead of serine indicate a proteolytic cleavage by lysosomal endopeptidases, which might be of great importance for the release of the smallest Dau-containing metabolite.
The rat liver lysosomal homogenate was prepared as previously described. The protein concentration was determined by Qubit Protein Assay Kit according to the manufacturer’s protocol (ThermoFisher Scientific, Waltham, MA, USA). The bioconjugates were dissolved in ddH2O to a concentration of 5 µg/µL. The reaction was carried out in 0.2 M NaOAc buffer (pH 5), with an identical concentration of bioconjugate and rat liver lysosomal homogenate (0.25 µg/µL). The reaction mixtures were incubated at 37 °C and aliquots of 15 µL were taken at 5 min, 1 h, 2 h, 4 h, 8 h and 24 h and quenched with 2 µL of acetic acid. The analysis of the samples was performed by LC–MS.

Row | SMILES | IC50 ([1]; 24 h treatment, then 48 h in complete medium, alamarBlue, mean ± SE, read-out: MCF-7 IC50) | incubation time after which the smallest Dau-containing metabolite H-Lys(Dau=Aoa)-OH was detected ([2]; rat liver lysosomal homogenate, 37 °C) | release of the smallest Dau-containing metabolite H-Lys(Dau=Aoa)-OH ([2]; rat liver lysosomal homogenate, 37 °C, up to 24 h) | IC50 ([1]; 24 h) | incubation time after which the smallest Dau-containing metabolite H-Lys(Dau=Aoa)-OH was detected [2]
1 | CCCC(=O)NCCCC[C@H](NC(=O)[C@H](Cc1c[nH]c2ccccc12)NC(=O)[C@H](Cc1c[nH]cn1)NC(=O)[C@@H]1CCC(=O)N1)C(=O)N[C@@H](Cc1c[nH]cn1)C(=O)N[C@H](CCC(=O)O)C(=O)N[C@@H](Cc1c[nH]c2ccccc12)C(=O)N[C@@H](CCCCNC(=O)CON=C(C)[C@]1(O)Cc2c(O)c3c(c(O)c2[C@@H](O[C@H]2C[C@H](N)[C@H](O)[C@H](C)O2)C1)C(=O)c1c(OC)cccc1C3=O)C(=O)N1CCC[C@H]1C(=O)NCC(N)=O [compound 5, [4Lys(Bu), 6D-Glu, 8Lys(Dau=Aoa)]] ([pGlu]HWK(Butyryl)H[dE]WK(Daunorubicin(13-NOCH2CO))PG-NH2) | 7 ± 1.2 µM | 24 h | identified in small amount |  | 
2 | COc1cccc2c1C(=O)c1c(O)c3c(c(O)c1C2=O)C[C@@](O)(C(C)=NOCC(=O)NCCCC[C@H](NC(=O)[C@H](Cc1c[nH]c2ccccc12)NC(=O)[C@@H](CCC(=O)O)NC(=O)[C@H](Cc1c[nH]cn1)NC(=O)[C@H](CO)NC(=O)[C@H](Cc1c[nH]c2ccccc12)NC(=O)[C@H](Cc1c[nH]cn1)NC(=O)[C@@H]1CCC(=O)N1)C(=O)N1CCC[C@H]1C(=O)NCC(N)=O)C[C@@H]3O[C@H]1C[C@H](N)[C@H](O)[C@H](C)O1 [compound 2, [6D-Glu, 8Lys(Dau=Aoa)]] ([pGlu]HWSH[dE]WK(Daunorubicin(13-NOCH2CO))PG-NH2) |  |  |  | 6.8 ± 1 µM | 24 h
